# B1: Guanyl-specific ribonuclease T1 wild type, P00651 (protein)
# chain: MMYSKLLTLTTLLLPTALALPSLVERACDYTCGSNCYSSSDVSTAQAAGYQLHEDGETVGSNSYPHKYNNYEGFDFSVSSPYYEWPILSSGDVYSGGSPGADRVVFNENNQLAGVITHTGASGNNFVECT
# Settings: Aspergillus oryzae (strain ATCC 42149 / RIB 40), Thermal, DSC, glycine 0.05 M, reversible: yes, whole UniProt chain shown
protein,measurement,setting,value
B1,Tm,pH 2,39.2 °C
same,unfolding enthalpy (calorimetric),pH 2,82 kcal/mol
same,Tm,pH 2.5,45.6 °C
same,unfolding enthalpy (calorimetric),pH 2.5,89.4 kcal/mol
same,heat capacity change of unfolding,"pH 3, 40 °C",1.19 kcal/mol/K
same,unfolding free energy,"pH 3, 40 °C",2.94 kcal/mol
same,Tm,pH 3,50.5 °C
same,unfolding enthalpy (calorimetric),pH 3,97.3 kcal/mol
same,Tm,pH 4,63.3 °C
same,unfolding enthalpy (calorimetric),pH 4,110 kcal/mol

# From FireProtDB (doi:10.1111/j.1399-3011.1991.tb01525.x)
